Here are results for one molecule from doi:10.64898/2026.08.16.745104, “C. elegans Dicer stacks with the RIG-I-like receptor DRH-1 to cleave dsRNA”.

The series concerns the target DCR-1;DRH-1;RDE-4 (Caenorhabditis elegans;Caenorhabditis …, UniProt P34529;G5EDI8;G5EBF5 1-1910;1-1037;1-385, ||). As to the kind of experiment: cryo-EM structure, 3.0 A; 5 mM ATP, 20 C; ADP modelled in DCR-1, DRH-1 and DRH-1*; Mg2+; cleavage-competent state, poised for second cleavage; RDE-4 dsRBM2 density not seen; Cryo-EM; sample buffer not given in material. Lysis/resuspension buffer 25 mM HEPES pH 7.5, 10 mM KOAc, 2 mM Mg(OAc)2, 100 mM KCl, 1 mM TCEP, 5% glycerol; RNA annealed in 50 mM Tris pH 8.0, 20 mM KCl; ATP sample incubated at 20 C. Conditions: protein: recombinant;recombinant;recombinant; (StrepTrap purification); copies: 1;1;1; 2 nt 3' overhangs at both termini.

Chain of DCR-1;DRH-1;RDE-4 (P34529 whole entry, chain 1 of 3): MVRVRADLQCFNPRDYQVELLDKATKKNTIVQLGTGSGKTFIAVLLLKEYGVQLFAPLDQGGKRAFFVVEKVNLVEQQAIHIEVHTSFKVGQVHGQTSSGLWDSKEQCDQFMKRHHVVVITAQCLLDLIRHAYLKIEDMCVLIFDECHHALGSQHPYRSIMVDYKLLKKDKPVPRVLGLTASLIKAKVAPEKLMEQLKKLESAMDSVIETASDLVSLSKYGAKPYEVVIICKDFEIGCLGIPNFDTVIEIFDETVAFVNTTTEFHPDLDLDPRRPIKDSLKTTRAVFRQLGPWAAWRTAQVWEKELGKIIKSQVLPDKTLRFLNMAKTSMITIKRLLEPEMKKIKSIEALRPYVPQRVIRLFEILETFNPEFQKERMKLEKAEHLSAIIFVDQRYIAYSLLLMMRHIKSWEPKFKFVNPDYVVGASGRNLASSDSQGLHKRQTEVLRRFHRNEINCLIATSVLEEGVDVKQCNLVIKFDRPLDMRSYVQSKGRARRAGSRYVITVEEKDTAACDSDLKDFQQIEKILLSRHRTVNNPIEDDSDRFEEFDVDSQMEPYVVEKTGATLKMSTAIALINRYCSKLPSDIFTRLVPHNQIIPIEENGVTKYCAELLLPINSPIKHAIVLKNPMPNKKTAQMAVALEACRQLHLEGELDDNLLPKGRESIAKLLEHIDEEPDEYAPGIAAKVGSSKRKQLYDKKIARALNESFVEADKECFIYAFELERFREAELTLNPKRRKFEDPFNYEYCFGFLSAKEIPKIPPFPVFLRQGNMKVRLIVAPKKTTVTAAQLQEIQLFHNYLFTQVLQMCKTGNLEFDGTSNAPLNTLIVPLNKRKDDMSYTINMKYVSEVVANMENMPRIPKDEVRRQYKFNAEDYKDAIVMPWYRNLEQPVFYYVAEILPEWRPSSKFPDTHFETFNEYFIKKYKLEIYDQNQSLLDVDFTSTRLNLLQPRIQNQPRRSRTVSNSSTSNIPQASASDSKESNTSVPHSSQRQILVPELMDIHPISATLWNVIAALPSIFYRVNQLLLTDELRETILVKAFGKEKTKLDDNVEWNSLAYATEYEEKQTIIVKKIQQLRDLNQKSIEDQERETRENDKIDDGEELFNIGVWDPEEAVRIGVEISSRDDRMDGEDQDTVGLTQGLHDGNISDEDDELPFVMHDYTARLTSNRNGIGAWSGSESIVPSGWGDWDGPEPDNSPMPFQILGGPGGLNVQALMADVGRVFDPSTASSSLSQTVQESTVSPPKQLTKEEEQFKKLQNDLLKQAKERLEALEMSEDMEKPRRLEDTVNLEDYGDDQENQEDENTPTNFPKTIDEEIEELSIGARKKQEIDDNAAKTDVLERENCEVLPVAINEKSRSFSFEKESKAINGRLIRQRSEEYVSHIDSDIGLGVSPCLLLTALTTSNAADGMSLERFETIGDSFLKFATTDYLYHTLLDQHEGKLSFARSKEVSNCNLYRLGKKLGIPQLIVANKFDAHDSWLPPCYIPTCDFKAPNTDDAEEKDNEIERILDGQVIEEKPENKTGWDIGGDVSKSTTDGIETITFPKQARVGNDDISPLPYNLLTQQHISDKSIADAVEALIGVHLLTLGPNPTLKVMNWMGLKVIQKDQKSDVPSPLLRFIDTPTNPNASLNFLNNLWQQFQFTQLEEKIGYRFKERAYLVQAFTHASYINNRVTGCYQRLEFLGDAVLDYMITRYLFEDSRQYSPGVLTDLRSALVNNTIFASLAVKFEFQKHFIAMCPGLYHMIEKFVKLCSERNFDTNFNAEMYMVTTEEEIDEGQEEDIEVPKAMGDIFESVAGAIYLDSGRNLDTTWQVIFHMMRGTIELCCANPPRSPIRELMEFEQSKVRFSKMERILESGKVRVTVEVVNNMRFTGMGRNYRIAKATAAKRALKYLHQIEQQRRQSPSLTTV
Chain of DCR-1;DRH-1;RDE-4 (chain, as listed by the source ||, chain 2 of 3): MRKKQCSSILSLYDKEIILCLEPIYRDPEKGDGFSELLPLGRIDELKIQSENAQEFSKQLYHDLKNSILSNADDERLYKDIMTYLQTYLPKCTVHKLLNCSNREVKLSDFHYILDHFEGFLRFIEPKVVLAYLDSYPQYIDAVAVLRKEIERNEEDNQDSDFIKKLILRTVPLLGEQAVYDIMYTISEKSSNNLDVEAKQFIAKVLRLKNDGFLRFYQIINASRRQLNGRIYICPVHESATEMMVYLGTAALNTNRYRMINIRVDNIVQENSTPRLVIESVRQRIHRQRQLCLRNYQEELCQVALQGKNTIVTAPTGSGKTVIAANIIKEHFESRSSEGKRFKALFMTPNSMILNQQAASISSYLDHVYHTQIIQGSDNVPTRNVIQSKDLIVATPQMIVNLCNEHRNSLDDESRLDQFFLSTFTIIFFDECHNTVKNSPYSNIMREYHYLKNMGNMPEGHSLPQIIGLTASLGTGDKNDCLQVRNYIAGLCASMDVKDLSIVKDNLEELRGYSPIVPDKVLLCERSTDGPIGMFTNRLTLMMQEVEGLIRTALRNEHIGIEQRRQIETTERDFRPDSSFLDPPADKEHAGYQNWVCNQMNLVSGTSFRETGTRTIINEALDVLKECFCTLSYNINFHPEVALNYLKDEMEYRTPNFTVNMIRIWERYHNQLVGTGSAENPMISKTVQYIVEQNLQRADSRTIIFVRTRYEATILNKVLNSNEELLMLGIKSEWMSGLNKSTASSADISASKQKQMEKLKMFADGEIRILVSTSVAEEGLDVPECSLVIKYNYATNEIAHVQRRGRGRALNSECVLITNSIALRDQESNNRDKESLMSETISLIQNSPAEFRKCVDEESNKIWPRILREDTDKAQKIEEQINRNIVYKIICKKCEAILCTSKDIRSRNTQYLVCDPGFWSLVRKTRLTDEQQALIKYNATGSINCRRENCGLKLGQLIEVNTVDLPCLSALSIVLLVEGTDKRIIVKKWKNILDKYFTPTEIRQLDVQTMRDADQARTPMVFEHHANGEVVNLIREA
Chain of DCR-1;DRH-1;RDE-4 (chain, as listed by the source ||, chain 3 of 3): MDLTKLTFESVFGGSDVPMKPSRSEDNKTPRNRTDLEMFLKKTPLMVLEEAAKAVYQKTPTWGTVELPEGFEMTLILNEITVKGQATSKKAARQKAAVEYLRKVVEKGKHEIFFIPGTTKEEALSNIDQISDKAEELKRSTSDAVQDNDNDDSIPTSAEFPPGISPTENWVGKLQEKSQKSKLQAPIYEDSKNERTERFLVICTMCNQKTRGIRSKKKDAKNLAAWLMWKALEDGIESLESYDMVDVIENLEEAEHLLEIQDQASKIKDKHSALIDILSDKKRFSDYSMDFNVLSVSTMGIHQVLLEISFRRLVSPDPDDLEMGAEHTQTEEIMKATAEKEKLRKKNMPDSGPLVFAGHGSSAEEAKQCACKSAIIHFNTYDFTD

B1: 3'ovr 106-dsRNA (dsRNA)
RNA 1: GGCAAUGAAAGACGGUGAGCUGGUGAUAUGGGAUAGUGUUCACCCUUGUUACACCGUUUUCCAUGAGCAAACUGAAACGUUUUCAUCGCUCUGGAGUGAAUACCAA
RNA 2: GGUAUUCACUCCAGAGCGAUGAAAACGUUUCAGUUUGCUCAUGGAAAACGGUGUAACAAGGGUGAACACUAUCCCAUAUCACCAGCUCACCGUCUUUCAUUGCCAA
B1: the binding result is “binds”.
